Experimental data as given in US20250263444A1 (KOREA UNIVERSITY RESEARCH AND BUSINESS FOUNDATION SEJONG …, published 2025).

T1: vIRF3 (Δ250-280) mutant (Kaposi's sarcoma-associated herpesvirus …, UniProt F5HIC6 1-566)
T1 construct: V5-tagged, stably expressed in LECs; also called V5/vIRF3(Δ250-280); V5-vIRF3(Δ250-280)
T1 sequence: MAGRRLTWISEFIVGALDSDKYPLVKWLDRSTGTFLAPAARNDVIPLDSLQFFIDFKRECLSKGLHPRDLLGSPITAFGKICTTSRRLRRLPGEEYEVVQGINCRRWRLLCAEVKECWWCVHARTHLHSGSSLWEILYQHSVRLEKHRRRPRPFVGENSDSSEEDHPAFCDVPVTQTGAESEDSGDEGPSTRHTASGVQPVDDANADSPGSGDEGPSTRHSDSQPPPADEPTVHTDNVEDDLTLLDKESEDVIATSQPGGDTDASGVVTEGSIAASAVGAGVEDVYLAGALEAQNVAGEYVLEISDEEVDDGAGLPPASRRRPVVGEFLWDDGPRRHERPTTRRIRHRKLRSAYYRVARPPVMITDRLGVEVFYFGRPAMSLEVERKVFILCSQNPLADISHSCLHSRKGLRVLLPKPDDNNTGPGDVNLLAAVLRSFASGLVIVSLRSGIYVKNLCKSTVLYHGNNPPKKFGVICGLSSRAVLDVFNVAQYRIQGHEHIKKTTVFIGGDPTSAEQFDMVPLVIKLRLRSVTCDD

T2: vIRF3 mutant with deleted aa250-260 (Kaposi's sarcoma-associated herpesvirus …, UniProt F5HIC6 1-566)
T2 construct: V5-tagged, expressed in LECs; end of the protein at 566 from the TM3 range (430-566); also called vIRF3(Δ250-260)
T2 sequence: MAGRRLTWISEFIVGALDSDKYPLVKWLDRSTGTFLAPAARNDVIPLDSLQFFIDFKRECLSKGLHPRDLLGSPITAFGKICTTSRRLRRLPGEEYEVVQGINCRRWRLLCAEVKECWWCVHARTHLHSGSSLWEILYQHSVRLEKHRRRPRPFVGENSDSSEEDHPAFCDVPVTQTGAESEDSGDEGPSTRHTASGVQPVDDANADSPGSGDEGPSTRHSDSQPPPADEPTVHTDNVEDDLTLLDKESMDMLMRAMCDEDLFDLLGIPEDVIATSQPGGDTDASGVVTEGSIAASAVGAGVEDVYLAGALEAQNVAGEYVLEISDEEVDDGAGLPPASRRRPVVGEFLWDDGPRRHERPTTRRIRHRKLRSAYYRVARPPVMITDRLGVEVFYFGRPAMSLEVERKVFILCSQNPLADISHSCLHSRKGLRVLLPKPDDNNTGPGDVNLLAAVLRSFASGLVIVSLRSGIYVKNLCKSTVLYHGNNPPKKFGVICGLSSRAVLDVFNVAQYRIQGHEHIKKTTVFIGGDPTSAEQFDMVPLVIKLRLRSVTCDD

B1: Kaposi's sarcoma-associated herpesvirus (KSHV) viral interferon regulatory factor 3 (vIRF3), wild type (other)
chain: MAGRRLTWISEFIVGALDSDKYPLVKWLDRSTGTFLAPAARNDVIPLDSLQFFIDFKRECLSKGLHPRDLLGSPITAFGKICTTSRRLRRLPGEEYEVVQGINCRRWRLLCAEVKECWWCVHARTHLHSGSSLWEILYQHSVRLEKHRRRPRPFVGENSDSSEEDHPAFCDVPVTQTGAESEDSGDEGPSTRHTASGVQPVDDANADSPGSGDEGPSTRHSDSQPPPADEPTVHTDNVEDDLTLLDKESACALMYHVGQEMDMLMRAMCDEDLFDLLGIPEDVIATSQPGGDTDASGVVTEGSIAASAVGAGVEDVYLAGALEAQNVAGEYVLEISDEEVDDGAGLPPASRRRPVVGEFLWDDGPRRHERPTTRRIRHRKLRSAYYRVARPPVMITDRLGVEVFYFGRPAMSLEVERKVFILCSQNPLADISHSCLHSRKGLRVLLPKPDDNNTGPGDVNLLAAVLRSFASGLVIVSLRSGIYVKNLCKSTVLYHGNNPPKKFGVICGLSSRAVLDVFNVAQYRIQGHEHIKKTTVFIGGDPTSAEQFDMVPLVIKLRLRSVTCDD
B2: pyruvate kinase M2 (PKM2) (enzyme)
chain: not shown
notes: Either endogenous PKM2 of LECs or HA-tagged hPKM2 from pCMV-HA-hPKM2 in 293T cells; also called PMK2; hPKM2

Key:
[1] = target: B2; assay: cell-based or functional assay
vIRF3 (Δ250-280) mutant = target: T1, vIRF3 (Δ250-280) mutant; assay: told in words; LECs expressing the mutant
[2] = target: T2, vIRF3 mutant with deleted aa250-260; assay: IP with anti-PKM2, blot with anti-V5, LEC lysates

| Binder | Boyden chamber cell migration of LECs [1] | binding result (vIRF3 (Δ250-280) mutant) | binding result [2] |
| --- | --- | --- | --- |
| B1 | 2 fold |  |  |
| B2 |  | no binding | no binding |
